The record followed here is paper PMC3991583 (Nature, 2014).

What all share (test): crystal structure
Data set [1] has as its target T1, AddA (nuclease-dead);AddB (nuclease-dead) (Bacillus subtilis?;Bacillus subtilis?, UniProt P23478;P23477 1-1232;1-1166, D1172A|D961A).
Data set [2] concerns the target T2, AddA subunit of the nuclease-dead AddAB mutant (AddA D1172A) (UniProt P23478 1-1232, D1172A).
T2 sequence: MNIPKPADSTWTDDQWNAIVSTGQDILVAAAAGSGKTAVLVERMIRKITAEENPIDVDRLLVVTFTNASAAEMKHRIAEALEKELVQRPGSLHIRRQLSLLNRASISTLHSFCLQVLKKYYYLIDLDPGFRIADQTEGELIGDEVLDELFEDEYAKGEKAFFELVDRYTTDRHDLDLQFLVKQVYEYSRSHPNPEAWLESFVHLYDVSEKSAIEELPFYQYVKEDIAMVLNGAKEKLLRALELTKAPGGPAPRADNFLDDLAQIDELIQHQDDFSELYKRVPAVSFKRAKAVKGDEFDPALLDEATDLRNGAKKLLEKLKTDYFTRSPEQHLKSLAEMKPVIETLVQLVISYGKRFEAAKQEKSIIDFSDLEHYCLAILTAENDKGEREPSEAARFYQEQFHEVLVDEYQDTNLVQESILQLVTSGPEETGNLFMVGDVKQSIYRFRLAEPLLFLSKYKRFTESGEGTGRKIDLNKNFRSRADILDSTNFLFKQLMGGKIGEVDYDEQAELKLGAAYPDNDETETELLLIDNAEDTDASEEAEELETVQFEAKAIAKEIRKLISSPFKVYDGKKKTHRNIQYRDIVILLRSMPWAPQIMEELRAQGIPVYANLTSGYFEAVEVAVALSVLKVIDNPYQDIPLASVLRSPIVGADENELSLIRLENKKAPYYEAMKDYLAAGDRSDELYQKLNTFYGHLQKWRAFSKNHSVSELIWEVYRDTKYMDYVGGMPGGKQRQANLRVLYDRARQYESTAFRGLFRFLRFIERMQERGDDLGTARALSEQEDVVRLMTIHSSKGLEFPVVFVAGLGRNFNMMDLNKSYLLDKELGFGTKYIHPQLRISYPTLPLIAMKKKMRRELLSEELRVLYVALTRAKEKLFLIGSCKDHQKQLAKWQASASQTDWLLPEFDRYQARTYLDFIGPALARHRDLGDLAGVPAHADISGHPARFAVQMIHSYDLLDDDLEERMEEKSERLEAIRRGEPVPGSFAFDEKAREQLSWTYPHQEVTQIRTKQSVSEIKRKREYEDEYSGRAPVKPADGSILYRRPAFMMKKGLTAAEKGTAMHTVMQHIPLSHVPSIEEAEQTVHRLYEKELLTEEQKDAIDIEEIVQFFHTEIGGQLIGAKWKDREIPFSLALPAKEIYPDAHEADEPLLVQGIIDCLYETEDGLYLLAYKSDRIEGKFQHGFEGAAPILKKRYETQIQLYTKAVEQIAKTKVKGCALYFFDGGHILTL

Data set [3] addresses T1, AddA (nuclease-dead);AddB …. This is another data set of the same source.

Where two headings read alike, the source gives them in different places.

B1: oligo 023 (Chi, 6 T spacer) (structured_DNA)
DNA: TTTTTTTCTAATGCGAGCACTGCTATTCCCTAGCAGTGCTCGCATTAGATTTTGTTTTTTAGCGG
For B1, in data set [1], the binding result is on record as “binds”.

B2: AddB subunit of the nuclease-dead AddAB mutant (AddB D961A) (enzyme)
chain: MGAEFLVGRSGSGKTKLIINSIQDELRRAPFGKPIIFLVPDQMTFLMEYELAKTPDMGGMIRAQVFSFSRLAWRVLQHTGGMSRPFLTSTGVQMLLRKLIEEHKQEFKVYQKASDKSGFTAQVERMLTEFKRYCLEPEDIRRMAESGTASEYRGERVLSEKLHDLSILYQQMEKSLADQYLHSEDYLTLLAEHIPLAEDIKGAHIYVDGFYQFTPQEFRVLEQLMVHAEHITFSLTADKPSYEREPHELELFRMTGKTYYRLHQKAKELNLDITYKELSGTERHTKTPELAHLEAQYEARPAIPYAEKQEALTVMQAANRRAELEGIAREIHALVREKGYRYKDVAILARQPEDYKDMVKEVFADYEIPYFIDGKASMLNHPLIEFIRSSLDVLKGNWRYEAVFRCVKTELLFPLNEPKAKVREQVDQLENYCIAYGIKGDRWTKGDRFQYRRFVSLDDDFAQTDQEIEMENMLNDTRDWIVPPLFQLQKRMKKAKTVQEKAEALYRYLEETDVPLKLDQERQRAEDDGRIIEAQQHQQAWDAVIQLLEEFVEMMGDDEISLDLFQQMIEAGAESLTFSLIPPALDQVFVGNMDLSRMYGTSCTFVLGANDGVLPARPDENGVLSDDDREWLKTIGVELSSGGRERLLDEHFLIYMAFSSPSDRLYVSYPIADAEGKTLLPSMIVKRLEELFPHHKERLLTNEPEQVSDEEQLMYVVNKSVAQSFTASQLRLWTREYDISDVWWSTYNVLMSEQDRLQSKKLFSSLFFRNEVKQLERSVSRQLYGERIQGSVSRMETFNACPFSHFASHGLHLKERQFFKLEAPDIGQLFHSSLKLISDRLREQKLDWRDLTKEQCELFSYDAVERLAPKLQKEILLSSNRHYYVKEKLQKIVTRVSGILSEHAKASGFVPIGLELGFGGKGPLPPLTFQLKNGCTMELVGRIDRVDKAESSKGLLLRIVAYKSSDKGLDLAEVYYGLALQMLTYLDLSITHSADWLGMRATPAGVLYFHIHDPMIQSNLPLGLDEIEQEIFKKFKMKGLLLGDQEVVRLMDTTLQEGRSNIINAGLKKDGSLRSDSAAVGEKEFDLLTKHVRRTFQEAGEQITDGRVSIEPYKMKNKTPCTYCAFKSVCQFDESLEENEYRPLKAEKDKTILEWIKKEADGNEHS
As to B2, in data set [2], the binding result was “binds”.

B3: oligo 027 (Chi, 7 T spacer, TTTT 3' extension) (structured_DNA)
DNA: TTTTTTTCTAATGCGAGCACTGCTATTCCCTAGCAGTGCTCGCATTAGATTTTGTTTTTTTAGCGGTTTT
As to B3, the binding result in data set [3] is “binds”.
